This is an account of results in patent US20250376535A1 (BEIJING STARMAB BIOMED TECHNOLOGY, published 2025).

Numbering of substitutions follows the chain as printed. Where only a bound is given, the exact number is not on record here.

The term Kd denotes a measure of binding affinity in units of concentration. As a reminder, the koff is a measure of how fast the partners let go of each other. As a reminder, the kon is the second-order rate constant of association.

B1: pgDD40-SZ-7 (VHH, not shown: small tags and cut ends)
VHH: QVQLVESGGALAQPGGSLRLSCEASATVRSVNAMAWYRQGPGKPRELVANITSGDTTYYADSVKGRFTLSREGARNTVYLQMNSLKPEDTAVYQCNIHYTSTGGIRRDYWGRGTQVTVSS
B2: pgDD40-SZ-2 (VHH, not shown: small tags and cut ends)
VHH: B1 VHH with Q1E, V28I, L47M
B3: pgDD40-SZ-1 (VHH, not shown: small tags and cut ends)
VHH: B1 VHH with A26T, T27N, G54D, T56A, I97V, T102W
B4: pgDD40-SZ-5 (VHH, not shown: small tags and cut ends)
VHH: B1 VHH with A26E, T27N, T56A, I97V, T102W
B5: pgDD40-SZ-3 (VHH, not shown: small tags and cut ends)
VHH: QVQLVESGGGLVQAGDSLRLSCTASGRAFNTYTMAWFRQAPGKERDFVAAISRDGTITHYADSVKGRFTTTRDNAKNTMYLQMSSLKYDDTAVYYCAARRVGAVPERESAYEHWGQGTQVTVSS
B6: pgDD40-HZ-47 (VHH, not shown: small tags and cut ends)
VHH: QVQLVESGGGLVQPGGSMRLSCSASGFSISVYWMSWVRRAPGKGLEWVSNLGADGVTAQYSDSVKGRFTIARDTAKNTLYLQMNSLKPEDTAVYYCNAMTGMNPAEEEAYWGQGTQVTVSS
B7: pgDD40-HZ-15 (VHH, not shown: small tags and cut ends)
VHH: EVQLVESGGGLVQAGGSLRLSCAASGFTFDDYAIGWFRQAPGKEREGVSCLSKNVGNTYYADSVKGRFTISSDNAKNTVYLQMNSLKPEDTAVYYCAKGSGYGCYDFPRYAVWGQGTQVTVSS
B8: pgDD40-SZ-12 (VHH, not shown: small tags and cut ends)
VHH: EVQLVESGGGLVQPGGSLKLSCAASGFAFSRYTMSWVRQAPGKGLEWVSGIDSGGGRTSYINSVKGRFTISRDNAKNTLYLQMNSLKPEDTAVYHCAQGGDSGSYYRTSWGQGTQVTVSS
B9: pgDD40-HZ-28 (VHH, not shown: small tags and cut ends)
VHH: EVQLVESGGGLVQAGGSLRLSCVASERTFTPVRMGWFRQAPGKEREIVAAITWSDGSTYYADAVKGRFTISRDNALNAVYLQIDSLKPEDTAVYVCAASTSPYSTHLQFRYWGQGTQVTVSS
B10: MSA B1 (VHH)
VHH: EVQLVESGGGLVQPGGSLHLSCAASRLTTGVTFSDYGMAWFRQAPGAERELLANINWSGQYTNYRDSVKGRAAIFRDNAKNTLYLNINSLKAEDTAVYYCAASSRKYGPGIKSQYEWWGQGTQVTVSS
notes: Llama single domain antibody with C-terminal His-tag, made in HEK293; not shown: C-terminal His-tag
B11: MSA1 (VHH)
VHH: EVQLVESGGGLAQAGGSLRLSCADSGHSFSLYAMAWFRQTPEKEREFVAAISSSGGDTYYADSVKGRFTISRENAKNTAYLQMDSLKPGDTAVYFCAGNYYTSQLMRGMYEHWGQGTQVTVSS
notes: as for B10

T2 sequence (P25942 21-193 limits assumed): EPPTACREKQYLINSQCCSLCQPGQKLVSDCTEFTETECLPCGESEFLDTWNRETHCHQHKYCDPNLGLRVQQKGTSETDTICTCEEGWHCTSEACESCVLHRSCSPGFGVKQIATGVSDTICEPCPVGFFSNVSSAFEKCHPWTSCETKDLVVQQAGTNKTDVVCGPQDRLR
T1 sequence (P25942 21-193): as the sequence (P25942 21-193 limits assumed) above

The first experiment addresses T1, recombinant human CD40-Fc (human, UniProt P25942 21-193).
T1 construct: also called rh-CD40-Fc; CD40-hFc
The experiment can be described thus: ELISA, CD40-Fc coated, VHH at 8 nM. Background: In an ELISA, binding on a coated surface is turned into a signal by an enzyme label.
Method: (§1) After four times washing with PBST, the plate was incubated with detecting antibody anti-his-HRP (1:4000 dilution) 100 μl per well for one hour with shaking at 60 rpm. The plate was developed with 100 μL of TMB per well in the dark and then stopped by 50 μL of stop solution per well.
Turning to B1, the OD450 was 1.6.

As to B2, the OD450 is 1.59.

Take B3: the OD450 was 1.66.

On to B4, for which the OD450 was 1.41.

With B5, the OD450 is 1.59.

B6: the OD450 is 0.063.

With B7, the OD450 came out at 0.061.

Take B8: the OD450 was 0.09.

As to B9, the OD450 is 0.059.

The next experiment deals with T1, recombinant human CD40-Fc. As to the kind of experiment: ELISA, CD40-Fc coated, VHH at 40 nM.
Method: as §1
As for B1, the OD450 was 1.67.

B2: the OD450 was found to be 1.72.

B3: the OD450 was 1.72.

For B4, the OD450 was 1.68.

For the molecule B5, the OD450 was 1.64.

Turning to B6, the OD450 was 0.066.

Turning to B7, the OD450 was 0.076.

As for B8, the OD450 was 0.256.

As for B9, the OD450 was determined as 0.067.

In another experiment the target is T1, recombinant human CD40-Fc. The experiment can be described thus: ELISA, CD40-Fc coated, VHH at 1.6 nM.
Method: as §1
For B1, the OD450 was 1.01.

As for B2, the OD450 worked out at 0.94.

Turning to B3, the OD450 was 0.866.

Consider B4, for which the OD450 amounted to 0.85.

B5: the OD450 was determined as 1.02.

Take B6: the OD450 came out at 0.056.

For B7, the OD450 came out at 0.062.

With B8, the OD450 was 0.061.

With B9, the OD450 worked out at 0.062.

The next experiment has as its target T1, recombinant human CD40-Fc. The experiment can be described thus: ELISA, CD40-Fc coated, VHH at 200 nM.
Method: as §1
For the molecule B1, the OD450 worked out at 1.62.

As to B2, the OD450 worked out at 1.52.

On to B3, for which the OD450 is 1.69.

Turning to B4, the OD450 was 1.73.

Take B5: the OD450 came out at 1.64.

As for B6, the OD450 turned out to be 0.126.

With B7, the OD450 was determined as 0.166.

Regarding B8, the OD450 was 0.895.

Take B9: the OD450 was found to be 0.123.

Another experiment concerns the target T1, recombinant human CD40-Fc. The experiment can be described thus: ELISA, CD40-Fc coated, VHH at 0.32 nM.
Method: as §1
B1: the OD450 was found to be 0.332.

With B2, the OD450 is 0.293.

In the case of B3, the OD450 came to 0.248.

B4: the OD450 amounted to 0.25.

As for B5, the OD450 stood at 0.287.

Take B6: the OD450 worked out at 0.063.

As to B7, the OD450 was 0.06.

In the case of B8, the OD450 amounted to 0.059.

Consider B9, for which the OD450 worked out at 0.066.

Another experiment has as its target T1, recombinant human CD40-Fc. As to the kind of experiment: ELISA, CD40-Fc coated, VHH at 1000 nM.
Method: as §1
For B1, the OD450 was 1.67.

As to B2, the OD450 was 1.64.

Regarding B3, the OD450 turned out to be 1.68.

On to B4, for which the OD450 stood at 1.67.

For the molecule B5, the OD450 came out at 1.57.

For the molecule B6, the OD450 amounted to 0.569.

B7: the OD450 turned out to be 0.479.

In the case of B8, the OD450 is 1.54.

As for B9, the OD450 turned out to be 0.419.

In a further experiment the target is T1, recombinant human CD40-Fc. As to the kind of experiment: ELISA, CD40-Fc coated, VHH at 0.013 nM.
Method: as §1
For the molecule B1, the OD450 is 0.092.

Consider B2, for which the OD450 was determined as 0.062.

Take B3: the OD450 came to 0.056.

B4: the OD450 is 0.061.

Take B5: the OD450 is 0.055.

As to B6, the OD450 came out at 0.055.

As for B7, the OD450 is 0.063.

In the case of B8, the OD450 is 0.058.

On to B9, for which the OD450 is 0.075.

The target in the next experiment is T1, recombinant human CD40-Fc. The experiment can be described thus: ELISA, CD40-Fc coated, VHH at 0.064 nM.
Method: as §1
Take B1: the OD450 turned out to be 0.088.

Regarding B2, the OD450 came to 0.091.

Take B3: the OD450 was determined as 0.074.

As to B4, the OD450 was 0.085.

For the molecule B5, the OD450 is 0.098.

For the molecule B6, the OD450 came to 0.053.

On to B7, for which the OD450 came out at 0.062.

On to B8, for which the OD450 worked out at 0.065.

In the case of B9, the OD450 worked out at 0.07.

For the next experiment, the target named is T1, recombinant human CD40-Fc. The experiment can be described thus: ELISA, CD40-Fc coated, VHH at 0.0026 nM.
Method: as §1
In the case of B1, the OD450 came out at 0.056.

Turning to B2, the OD450 came to 0.058.

As for B3, the OD450 is 0.055.

Take B4: the OD450 is 0.059.

With B5, the OD450 amounted to 0.055.

Turning to B6, the OD450 was found to be 0.06.

On to B7, for which the OD450 turned out to be 0.064.

Consider B8, for which the OD450 came to 0.06.

For B9, the OD450 is 0.061.

The next experiment concerns the target T2, Human CD40 antigen (recombinant, BLI) (human, UniProt P25942 21-193).
T2 construct: also called rh-CD40
The experiment can be described thus: BLI, VHH-His on anti-His tips, human CD40 in solution.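 Note: kinetics measured at 30 °C in PBS pH 7.2, association tracked for 200 s, then dissociation followed in PBS lacking CD40.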 For orientation: Biolayer interferometry detects binding as a change in optical thickness at a sensor tip.
Method: Bio-Layer Interferometry (BLI) kinetic binding analysis. […] Affinity measurements were performed with Gator equipped with Anti-Penta-His capture (HIS1K) biosensor tips. The assay was performed at 30° C. in 1×PBS buffer (Gibco®, PBS pH7.2). Samples were agitated at 1000 rpm. Prior to analysis, sensors were humidified for 15 min. […] Sensor data was collected throughout the experiments, processed, and analyzed using the Gator data analysis software.
Briefly, purified anti-CD40 VHH was tested for its binding capacity with HIS1K sensor tips. Tips were loaded using 20 μg/ml of anti-CD40 VHH. Loading proceeded for 300 sec resulting in capture levels of between 1.8 and 2 nm. […] Association was initiated and monitored for 200 sec, after which tips were transferred to 1×PBS buffer without CD40 protein in order to monitor dissociation.
On to B1, for which the Kd is less than 0.001 nM, the koff was found to be 1e-06 s⁻¹ and the kon was 721000 M⁻¹ s⁻¹.

In the case of B2, the Kd turned out to be 0.0047 nM, the koff was 3.59e-06 s⁻¹ and the kon amounted to 765000 M⁻¹ s⁻¹.

For the molecule B3, the Kd was less than 0.001 nM, the koff came to 1e-06 s⁻¹ and the kon was 779000 M⁻¹ s⁻¹.

Consider B4, for which the Kd is less than 0.001 nM, the koff came out at 1e-06 s⁻¹ and the kon was 784000 M⁻¹ s⁻¹.

With B5, the Kd turned out to be 0.106 nM, the koff is 7.65e-05 s⁻¹ and the on-rate constant (kon) was 722000 M⁻¹ s⁻¹.

Turning to B6, the Kd amounted to 0.469 nM, the koff is 0.000625 s⁻¹ and the kon was determined as 1.33e+06 M⁻¹ s⁻¹.

In the case of B7, the Kd was found to be 3.12 nM, the koff was 0.0011 s⁻¹ and the kon was determined as 351000 M⁻¹ s⁻¹.

On to B8, for which the Kd was 1.43 nM, the koff was found to be 0.000806 s⁻¹ and the kon was 564000 M⁻¹ s⁻¹.

Consider B9, for which the Kd worked out at 4.06 nM, the koff was 0.00372 s⁻¹ and the kon came out at 917000 M⁻¹ s⁻¹.

Another experiment deals with T3, human serum albumin (human, UniProt P02768 25-609).
T3 construct: also called HSA
The experiment can be described thus: BLI (Gator), His-tagged VHH on anti-His sensor, HSA 100 nM in solution.
Method: (§2) Kinetic binding analysis of MSA VHHs were performed with Gator Prime system equipped with analyze software. […] The experiments were done at 30° C. Prior to analysis, sensors were socked in Q buffer for 600 sec with shaking at 1000 rpm, and then 2 μM of HIS tagged MSA VHHs were loaded to Anti-His sensors with shaking at 400 rpm for 120 sec. Loaded sensors were transferred into Q buffer for 60 sec. Association of HSA or MSA at 100 nM was initiated and monitored for 120-180 sec with shaking at 1000 rpm, and finally dissociation in Q buffer for 120-180 sec with 1000 rpm shaking. Software V2.0 (Gator Bio) was used for data analysis. The on-rate (Kₒₙ) and off-rate (Kd) were determined by fitting of the association and dissociation phases of each sample. The mathematical model used assumes a 1:1 stoichiometry, fitting only one analyte in solution binding to one binding site on the surface. The equilibrium dissociation constant (KD), a measure for affinity, was then calculated as the ratio of Kd and Kₒₙ.
For the molecule B10, the affinity, expressed as Kd, was 11.3 nM; the koff worked out at 0.00511 s⁻¹; the kon came to 454000 M⁻¹ s⁻¹.

For the molecule B11, the koff came out at 0.0217 s⁻¹.

The target in a further experiment is T4, murine serum albumin (murine, UniProt P07724 25-608).
T4 construct: As antigen 'MSA' means murine serum albumin; the VHHs also carry the label MSA; also called MSA
The experiment can be described thus: BLI (Gator), His-tagged VHH on anti-His sensor, murine serum albumin 100 nM in solution.
Method: as §2
For B10, binding was put at a Kd of 5.32 nM, the koff was determined as 0.000605 s⁻¹ and the kon came out at 114000 M⁻¹ s⁻¹.

As to B11, the Kd was found to be 6.64 nM, the off-rate constant (koff) came to 0.00117 s⁻¹ and the kon came out at 176000 M⁻¹ s⁻¹.
